From the DeepSol protein solubility set

Test: soluble on expression in E. coli; label from the status in PepcDB or PDB records

Sequence | soluble on expression in E. coli
MLKIATFNVNSIRSRLHIVIPWLKENKPDILCMQETKVENRKFPEADFHRIGYHVVFSGSKGRNGVAIASLEEPEDVSFGLDSEPKDEDRLIRAKIAGIDVINTYVPQGFKIDSEKYQYKLQWLERLYHYLQKTVDFRSFAVWCGDMNVAPEPIDVHSPDKLKNHVCFHEDARRAYKKILELGFVDVLRKIHPNERIYTFYDYRVKGAIERGLGWRGDAILATPPLAERCVDCYADIKPRLAEKPSDHLPLVAVFDV | soluble
MADSVLKEVNCGRPEKIPKLDKACEGSKSSWKHLKLGNVEDDEYLRQYCLFHYEFHKSEGFTVDWEKYDYMFHIRPLENSPPISDIRTNADVIRDVTLFAIEKHNEAHGSKLVFVEHVSANFKFANGLLCWLTFWATDMASSAPTSQIYQVELWRRGKQFEIPIFRVKPKDEEMDDVEVKPPSPMPYDDYDKPPVVFVRAAPEDGVPFVFDRTGALYDLYRSGL | soluble
MKDYIRSVLDVVAESPFVPLETHARKGVLAVEKLSEAMEAYCTGNQALLDERTEEIDVLEHEADKIKQKIRASIPSSVRLPVNKKDLLSFLKQQDSIADFAQASAYWMTLRPCKDLPDEIKEGFLELMATSLKTARMYDRLVGELYKLLATSFSKEEIKETLQLVPEVEKLEHDVDVLETALLKKIFEHESAIGGAGVCHLMGLVERIGGIADKSASAADRLRSMILRRLEHHHHHH | soluble
